{
  "source": "patent US6723838",
  "biological_target": "purified H-ras GST fusion protein [GST: P08515]",
  "sequence (P08515 whole entry, looked up, the tested form may be a part)": "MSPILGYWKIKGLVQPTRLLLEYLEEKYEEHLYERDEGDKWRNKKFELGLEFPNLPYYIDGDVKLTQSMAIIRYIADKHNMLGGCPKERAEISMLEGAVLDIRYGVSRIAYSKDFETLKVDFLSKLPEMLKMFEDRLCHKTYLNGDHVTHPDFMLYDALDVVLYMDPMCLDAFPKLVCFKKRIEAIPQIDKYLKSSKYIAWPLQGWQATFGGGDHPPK",
  "data": [
    {"protein": "GST fusion protein of the GAP domain (266-521) of SYNGAP (protein) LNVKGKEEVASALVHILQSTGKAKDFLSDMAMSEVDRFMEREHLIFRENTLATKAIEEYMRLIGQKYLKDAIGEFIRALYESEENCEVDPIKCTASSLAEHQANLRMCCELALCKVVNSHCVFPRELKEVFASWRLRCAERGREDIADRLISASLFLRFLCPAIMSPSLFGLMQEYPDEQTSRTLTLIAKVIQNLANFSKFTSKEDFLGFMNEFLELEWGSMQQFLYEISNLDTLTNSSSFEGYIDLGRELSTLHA", "values": [
      {"measurement": "GTPase activity of Ras ([gamma-32P]-GTP filter assay)", "value": "addition of the GST fusion protein of the GAP domain of SYNGAP dramatically stimulated the GTPase activity of Ras"}
    ]}
  ]
}
